{"source": "patent US20240391979A1", "about": "(ACHELOIS BIOPHARMA, published 2024)", "key": {"[1]": {"target": "Small Hepatitis B surface Antigen (S-HBsAg), HBV subtype not stated (Hepatitis B virus)", "experiment": "cell-based or functional assay"}, "[2]": {"target": "Small Hepatitis B surface Antigen (S-HBsAg), HBV subtype ayw (Hepatitis B virus, subtype ayw, UniProt P03138 1-226)", "sequence (P03138 164-389)": "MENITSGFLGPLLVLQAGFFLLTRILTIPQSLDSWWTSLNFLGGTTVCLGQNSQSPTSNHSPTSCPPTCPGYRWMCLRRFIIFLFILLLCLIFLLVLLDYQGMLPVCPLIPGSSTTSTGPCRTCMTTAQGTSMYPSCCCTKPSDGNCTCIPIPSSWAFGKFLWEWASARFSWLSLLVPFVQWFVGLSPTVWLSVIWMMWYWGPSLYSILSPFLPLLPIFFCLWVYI", "experiment": "cell-based or functional assay"}}}
{"binder": "bivalent, soluble H015 (antibody, V domains shown) VH: QVQLVESGGGVAQPGRSLRLSCAASGFSFSRHGMHWVRQAPGKGLEWVAGIWFDGTNDYYTDSVKGRFTISRDNSRSTLYLDINSLRAEDTAVYYCAREDPHLLIATLDLWGLGTLVTVSS VL: DIQVTQSPSSLSAFVGDRVTITCRASQGLTSFINWYQQKPGRAPKLLISSASSLQRGVPSRFTASGSGTHFTLTISSLQPEDFATYYCQQSYGTPALAFGGGTKVDIK", "values": [{"measurement": "IC50, in vitro HDV neutralization in primary human hepatocytes (HDV RNA)", "setting": "[1]", "value": 0.113, "unit": "nM"}, {"measurement": "IC50, in vitro HBV neutralization assay, HepG2-NTCP cells, ayw subtype", "setting": "[2]", "value": 0.0836, "unit": "nM"}]}
